Measured values published in patent US20030068675, “Position dependent recognition of GNN nucleotide triplets by zinc fingers” (published 2003).

Tests used:
Assay in all cases: EMSA
Settings in all cases: tags: MBP fusion
[1] = molecular target: T1, ZFP SBS#575 (synthetic)
T1 chain: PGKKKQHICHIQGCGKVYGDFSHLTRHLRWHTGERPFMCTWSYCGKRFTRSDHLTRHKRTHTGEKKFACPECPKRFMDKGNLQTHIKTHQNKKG
In short: (§1)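 Purified ZFP was titrated against labeled double-stranded target (1 nM or lower, at least 10-fold below expected Kd) carrying the natural binding site with flanks. Binding buffer was 10 mM Tris pH 7.5, 100 mM KCl, 1 mM MgCl2, 0.1 mM ZnCl2, 5 mM DTT, 10% glycerol, 0.02% BSA, with equilibration for at least 45 min. Bound and free target were separated on a 10% polyacrylamide gel.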

[2] = molecular target: ZFP SBS#576 (synthetic)
Chain of ZFP SBS#576 (synthetic) (chain, as listed by the source): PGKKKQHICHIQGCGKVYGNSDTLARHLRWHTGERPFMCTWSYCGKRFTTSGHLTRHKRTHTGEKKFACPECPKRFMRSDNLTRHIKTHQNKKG
In short: as §1

[3] = molecular target: ZFP SBS#577 (synthetic, UniProt P08047)
In short: as §1

[4] = molecular target: ZFP SBS#522 (synthetic, UniProt P08047)
In short: as §1

[5] = molecular target: T2, ZFP SBS#279 (synthetic)
T2 chain: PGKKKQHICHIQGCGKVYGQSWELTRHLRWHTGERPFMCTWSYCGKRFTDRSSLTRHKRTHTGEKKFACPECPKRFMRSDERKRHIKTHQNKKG
In short: as §1

[6] = molecular target: T3, ZFP SBS#281 (synthetic)
T3 chain: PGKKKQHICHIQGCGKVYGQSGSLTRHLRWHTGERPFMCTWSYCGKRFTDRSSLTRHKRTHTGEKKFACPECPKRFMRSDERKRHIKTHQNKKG
In short: as §1

[7] = molecular target: T4, ZFP SBS#276 (synthetic)
T4 chain: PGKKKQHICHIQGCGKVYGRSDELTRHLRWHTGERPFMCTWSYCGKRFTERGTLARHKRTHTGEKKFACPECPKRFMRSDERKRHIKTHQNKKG
In short: as §1

[8] = molecular target: T5, ZFP SBS#252 (synthetic)
T5 chain: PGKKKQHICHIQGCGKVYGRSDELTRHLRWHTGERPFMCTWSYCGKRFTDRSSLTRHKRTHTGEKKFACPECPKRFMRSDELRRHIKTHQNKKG
In short: as §1

[9] = molecular target: T6, ZFP SBS#280 (synthetic)
T6 chain: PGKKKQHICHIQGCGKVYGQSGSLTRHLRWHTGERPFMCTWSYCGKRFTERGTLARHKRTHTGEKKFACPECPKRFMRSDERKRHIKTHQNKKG
In short: as §1

[10] = molecular target: T7, ZFP SBS#278 (synthetic)
T7 chain: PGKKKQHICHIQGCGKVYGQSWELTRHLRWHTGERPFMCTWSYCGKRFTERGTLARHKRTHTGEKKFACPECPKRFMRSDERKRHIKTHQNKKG
In short: as §1

[11] = molecular target: T8, ZFP SBS#277 (synthetic)
T8 chain: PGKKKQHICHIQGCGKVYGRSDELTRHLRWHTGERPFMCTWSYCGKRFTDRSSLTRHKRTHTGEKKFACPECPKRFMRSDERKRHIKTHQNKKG
In short: as §1

[12] = molecular target: ZFP SBS#538 (synthetic)
In short: as §1

[13] = molecular target: ZFP SBS#518 (synthetic, UniProt P08047)
Chain of ZFP SBS#518 (P08047 other isoform, or with tags, fused parts or gaps): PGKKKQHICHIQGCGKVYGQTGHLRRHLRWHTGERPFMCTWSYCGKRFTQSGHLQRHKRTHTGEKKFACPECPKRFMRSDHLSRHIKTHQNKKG
In short: as §1

[14] = molecular target: T9, ZFP SBS#527 (synthetic, UniProt P08047)
T9 chain: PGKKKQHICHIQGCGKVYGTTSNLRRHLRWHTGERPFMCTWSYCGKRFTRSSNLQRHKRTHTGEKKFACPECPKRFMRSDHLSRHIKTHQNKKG
In short: as §1

[15] = molecular target: T10, ZFP SBS#606 (synthetic, UniProt P08047)
T10 chain: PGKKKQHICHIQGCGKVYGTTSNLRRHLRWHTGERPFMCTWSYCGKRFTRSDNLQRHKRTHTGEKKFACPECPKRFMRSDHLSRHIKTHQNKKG
In short: as §1

[16] = molecular target: T11, ZFP SBS#528 (synthetic, UniProt P08047)
T11 chain: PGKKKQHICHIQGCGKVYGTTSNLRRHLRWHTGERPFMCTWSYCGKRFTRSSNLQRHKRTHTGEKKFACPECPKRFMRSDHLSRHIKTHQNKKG
In short: as §1

[17] = molecular target: T12, ZFP SBS#579 (synthetic)
T12 chain: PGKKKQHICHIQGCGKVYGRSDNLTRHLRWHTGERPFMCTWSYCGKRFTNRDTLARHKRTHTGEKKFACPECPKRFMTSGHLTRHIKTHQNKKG
In short: as §1

[18] = molecular target: T13, ZFP SBS#570 (synthetic)
T13 chain: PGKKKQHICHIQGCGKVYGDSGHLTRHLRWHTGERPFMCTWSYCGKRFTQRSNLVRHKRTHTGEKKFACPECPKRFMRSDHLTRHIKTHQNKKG
In short: as §1

[19] = molecular target: ZFP SBS#519 (synthetic, UniProt P08047)
Chain of ZFP SBS#519 (P08047 other isoform, or with tags, fused parts or gaps): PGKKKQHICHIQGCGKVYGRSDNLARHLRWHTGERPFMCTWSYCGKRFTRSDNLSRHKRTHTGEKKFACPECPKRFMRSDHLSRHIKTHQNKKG
In short: as §1

[20] = molecular target: T14, ZFP SBS#581 (synthetic)
T14 chain: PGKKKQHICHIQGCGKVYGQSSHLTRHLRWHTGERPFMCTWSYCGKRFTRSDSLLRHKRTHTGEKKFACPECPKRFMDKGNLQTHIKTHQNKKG
In short: as §1

[21] = molecular target: ZFP SBS#587 (synthetic)
Chain of ZFP SBS#587 (synthetic) (chain, as listed by the source): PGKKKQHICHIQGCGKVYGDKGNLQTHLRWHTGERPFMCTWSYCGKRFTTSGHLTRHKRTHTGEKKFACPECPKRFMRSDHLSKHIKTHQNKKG
In short: as §1

[22] = molecular target: ZFP SBS#583 (synthetic)
Chain of ZFP SBS#583 (synthetic) (chain, as listed by the source): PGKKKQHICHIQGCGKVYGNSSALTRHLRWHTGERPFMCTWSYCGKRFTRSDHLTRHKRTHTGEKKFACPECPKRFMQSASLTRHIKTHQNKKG
In short: as §1

[23] = molecular target: T15, ZFP SBS#595 (synthetic)
T15 chain: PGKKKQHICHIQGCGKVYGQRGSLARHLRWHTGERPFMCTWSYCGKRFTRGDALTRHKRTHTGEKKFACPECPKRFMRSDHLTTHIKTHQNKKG
In short: as §1

[24] = molecular target: ZFP SBS#516 (synthetic, UniProt P08047)
In short: as §1

[25] = molecular target: ZFP SBS#520 (synthetic)
In short: as §1

[26] = molecular target: ZFP SBS#534 (synthetic)
In short: as §1

[27] = molecular target: ZFP SBS#532 (synthetic, UniProt P08047)
Chain of ZFP SBS#532 (P08047 other isoform, or with tags, fused parts or gaps): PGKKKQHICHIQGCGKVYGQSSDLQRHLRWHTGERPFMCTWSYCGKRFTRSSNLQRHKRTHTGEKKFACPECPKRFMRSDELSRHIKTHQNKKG
In short: as §1

[28] = molecular target: ZFP SBS#533 (synthetic)
Chain of ZFP SBS#533 (synthetic) (chain, as listed by the source): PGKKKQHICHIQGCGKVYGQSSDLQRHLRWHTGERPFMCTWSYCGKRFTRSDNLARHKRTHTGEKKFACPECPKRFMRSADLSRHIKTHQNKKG
In short: as §1

[29] = molecular target: T16, ZFP SBS#531 (synthetic, UniProt P08047)
T16 chain: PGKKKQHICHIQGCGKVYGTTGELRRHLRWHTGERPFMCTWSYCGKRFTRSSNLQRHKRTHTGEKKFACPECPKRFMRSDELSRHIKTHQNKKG
In short: as §1

[30] = molecular target: T17, ZFP SBS#574 (synthetic)
T17 chain: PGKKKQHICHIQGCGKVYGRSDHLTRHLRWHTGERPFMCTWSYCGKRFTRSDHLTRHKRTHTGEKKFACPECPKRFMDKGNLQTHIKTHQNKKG
In short: as §1

[31] = molecular target: T18, ZFP SBS#540 (synthetic)
T18 chain: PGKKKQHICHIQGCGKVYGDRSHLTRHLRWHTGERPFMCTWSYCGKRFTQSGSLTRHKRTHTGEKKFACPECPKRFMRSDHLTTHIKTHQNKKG
In short: as §1

[32] = molecular target: ZFP SBS#517 (synthetic, UniProt P08047)
Chain of ZFP SBS#517 (P08047 other isoform, or with tags, fused parts or gaps): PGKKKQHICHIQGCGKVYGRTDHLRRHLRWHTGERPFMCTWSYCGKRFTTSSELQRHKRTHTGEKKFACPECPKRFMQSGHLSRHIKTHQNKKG
In short: as §1

[33] = molecular target: ZFP SBS#515 (synthetic)
In short: as §1

[34] = molecular target: ZFP SBS#588 (synthetic, UniProt P08047)
In short: as §1

B1: TACGTGGGCT (dsDNA)
DNA 1: TACGTGGGCT
DNA 2: AGCCCACGTA
[1]
  Kd: 472 nM

B2: GAGGGTGTTG (dsDNA)
DNA 1: GAGGGTGTTG
DNA 2: CAACACCCTC
[2]
  Kd: 200 nM

B3: GGAGCGGGGA (dsDNA)
DNA 1: GGAGCGGGGA
DNA 2: TCCCCGCTCC
[3]
  Kd: 200 nM

B4: GATGAGGCA (dsDNA)
DNA 1: GATGAGGCA
DNA 2: TGCCTCATC
[4]
  Kd: 200 nM

B5: GCGGCCGCG (dsDNA)
DNA 1: GCGGCCGCG
DNA 2: CGCGGCCGC
[5]
  Kd: 260 nM
[6]
  Kd: 225 nM
[7]
  Kd: 90 nM
[8]
  Kd: 100 nM
[9]
  Kd: 160 nM
[10]
  Kd: 190 nM
[11]
  Kd: 107 nM

B6: GCAGAGGCTT (dsDNA)
DNA 1: GCAGAGGCTT
DNA 2: AAGCCTCTGC
[12]
  Kd: 70 nM

B7: GGGGGAGGAG (dsDNA)
DNA 1: GGGGGAGGAG
DNA 2: CTCCTCCCCC
[13]
  Kd: 30 nM

B8: GGGGAGGATC (dsDNA)
DNA 1: GGGGAGGATC
DNA 2: GATCCTCCCC
[14]
  Kd: 2 nM
[15]
  Kd: 0.2 nM
[16]
  Kd: 10 nM

B9: GGGGTTGAGG (dsDNA)
DNA 1: GGGGTTGAGG
DNA 2: CCTCAACCCC
[17]
  Kd: 200 nM

B10: GGGGAAGGCT (dsDNA)
DNA 1: GGGGAAGGCT
DNA 2: AGCCTTCCCC
[18]
  Kd: 20 nM

B11: GGGGAGGAGA (dsDNA)
DNA 1: GGGGAGGAGA
DNA 2: TCTCCTCCCC
[19]
  Kd: 0.3 nM

B12: TACGTGGGTT (dsDNA)
DNA 1: TACGTGGGTT
DNA 2: AACCCACGTA
[20]
  Kd: 382 nM

B13: GGGGGTTACG (dsDNA)
DNA 1: GGGGGTTACG
DNA 2: CGTAACCCCC
[21]
  Kd: 500 nM

B14: GTAGGGGTTG (dsDNA)
DNA 1: GTAGGGGTTG
DNA 2: CAACCCCTAC
[22]
  Kd: 46 nM

B15: TGGTTGGTAT (dsDNA)
DNA 1: TGGTTGGTAT
DNA 2: ATACCAACCA
[23]
  Kd: 73.3 nM

B16: GGAGGAGCT (dsDNA)
DNA 1: GGAGGAGCT
DNA 2: AGCTCCTCC
[24]
  Kd: 700 nM

B17: GGAGGAGAT (dsDNA)
DNA 1: GGAGGAGAT
DNA 2: ATCTCCTCC
[25]
  Kd: 300 nM

B18: GCGGAGGCTT (dsDNA)
DNA 1: GCGGAGGCTT
DNA 2: AAGCCTCCGC
[26]
  Kd: 10 nM
[27]
  Kd: 100 nM
[28]
  Kd: 7 nM
[29]
  Kd: 160 nM

B19: TACGTGGGGT (dsDNA)
DNA 1: TACGTGGGGT
DNA 2: ACCCCACGTA
[30]
  Kd: 25 nM

B20: TGGGCAGGCC (dsDNA)
DNA 1: TGGGCAGGCC
DNA 2: GGCCTGCCCA
[31]
  Kd: 55 nM

B21: GGAGCTGGGG (dsDNA)
DNA 1: GGAGCTGGGG
DNA 2: CCCCAGCTCC
[32]
  Kd: 50 nM

B22: TGGGAGGAGT (dsDNA)
DNA 1: TGGGAGGAGT
DNA 2: ACTCCTCCCA
[33]
  Kd: 0.5 nM

B23: GGGGGGGGGG (dsDNA)
DNA 1: GGGGGGGGGG
DNA 2: CCCCCCCCCC
[34]
  Kd: 30 nM
